For ten molecules, Km and kcat results are on record in paper PMC8098473, “Structural basis of chitin utilization by a GH20 β-N-acetylglucosaminidase from Vibrio campbellii strain ATCC BAA-1116” (Acta Crystallographica. Section D, Structural Biology, 2021).

B1: VhGlcNAcase (Vibrio harveyi) (protein)
chain: MGGSEYRVDLVVLSEQKQNCRFGLTFHNLSDQDLNSWGLTFAFDRYILPDSVSNGQLTQIGSFCTLKPEGIVLAANHHYYCEFSIGSNPFRYYSDGFNEAMIDFVVDGQPQRAQVDVTPIVLASPYRERSDIPASLTHAQPLLPKPNHIEVSDHSFTFDEQAGVAIYTDLANSAKAWLLEELQRIHQFTLSSSNSGKIIFKSNPTLDEGAYKLKVSEESIKIEAGSSSGFTHACATLLQLLKRDEATKTMEAVCCSIIDSPRFRYRGMMLDCARHFHSVEQVKRLINLLAHYKLNTFHWHLTDDEGWRVEIKSLPQLTEIGAWRGIDETIEPQYTHLSQRYGGFYTQEEIRDVIAFAEQRGITIIPEIDVPGHCRAAIKSLPHLLIEAEDTTEYRSIQHYNDNVINPALPGSYEFIDKVLEEIAALFPAPYVHIGADEVPNGVWSKSPACQALMEQLGYTDYKELQGHFLRHAEDKLRKLGKRMLGWEEAQHGNKVSKDTVIYSWLSEEAALNCARQGFDVVLQPAQTTYLDMTQDYAPEEPGVDWANPLPLEKAYNYEPLAEVPADDPIRKRIWGIQTALWCEIINNPSRMDYMIFPRLTAMAEACWTEKQHRDWTDYLSRLKGHLPLLDLQGVNYRKPWK

The first series has as its target T1, VhGlcNAcase (Vibrio harveyi, UniProt D9ISE0, D437A).
T1 construct: full-length nag2 (residues 1-642) plus C-terminal RSRS-His6 (10 extra residues), pQE-60, E. coli M15 (pREP4); 74 kDa expected, 76 kDa by SEC; monomer; EC 3.2.1.52
The experiment in a line: colorimetric 4-nitrophenol release at […] nm, Michaelis-Menten fit. Format: biochemical. The following applies: 100 mM sodium phosphate pH 7.0, 37°C, 10 min, 0–500 µM substrate.
For the molecule `CC(=O)N[C@H]1[C@H](Oc2ccc([N+](=O)[O-])cc2)O[C@H](CO)[C@@H](O)[C@@H]1O` [pNP-GlcNAc, 4-nitrophenyl N-acetyl-β-D-glucosaminide], the Michaelis-Menten constant (Km) was found to be 390 ± 32 µM.

In a further series the test system is CC(=O)N[C@H]1[C@H](Oc2ccc([N+](=O)[O-])cc2)O[C@H](CO)[C@@H](O)[C@@H]1O. Put plainly: purified protein. Format: biochemical, Vibrio harveyi. The following applies: 100 mM sodium phosphate pH 7.0, 37°C, 10 min, 0–500 µM substrate.
Consider VhGlcNAcase (Vibrio harveyi; D303A), for which the Km worked out at 302 ± 28 µM and the kcat came out at 1.4 ± 0.07 s⁻¹.

In the case of VhGlcNAcase (Vibrio harveyi; D303N), the Km is 325 ± 30 µM and the turnover number (kcat) stood at 1.8 ± 0.08 s⁻¹.

Turning to VhGlcNAcase (Vibrio harveyi; D437N), the Km is 339 ± 47 µM and the kcat came to 0.02 ± 0.001 s⁻¹.

With VhGlcNAcase (Vibrio harveyi; D532A), the Km came to 153 ± 9 µM and the catalytic constant (kcat) is 1.6 ± 0.03 s⁻¹.

With VhGlcNAcase (Vibrio harveyi; E438A), the Michaelis-Menten constant (Km) is 128 ± 16 µM and the turnover number (kcat) was found to be 0.11 ± 0.005 s⁻¹.

Regarding VhGlcNAcase (Vibrio harveyi; E438Q), the Michaelis constant (Km) was 120 ± 13 µM and the catalytic constant (kcat) came out at 0.13 ± 0.005 s⁻¹.

Consider VhGlcNAcase (Vibrio harveyi; E584A), for which the Km was 178 ± 20 µM and the catalytic constant (kcat) turned out to be 18 ± 0.7 s⁻¹.

With VhGlcNAcase (Vibrio harveyi; H373A), the Km amounted to 307 ± 31 µM and the kcat is 1.1 ± 0.06 s⁻¹.

Substrate in a further series: CC(=O)N[C@H]1[C@H](Oc2ccc([N+](=O)[O-])cc2)O[C@H](CO)[C@@H](O)[C@@H]1O
The experiment in a line: purified protein. Particulars: 100 mM sodium phosphate pH 7.0, 37°C, 10 min, 0–500 µM substrate. This is another data set of the same source.
For the molecule B1, the Michaelis-Menten constant (Km) was 92 ± 6 µM.

Broadly, the Km is the concentration of substrate that gives half-maximal velocity. By kcat is commonly meant the number of substrate molecules converted per active site and unit of time at saturation.
